Measured values as given in the supplement of paper PMC9170038.

System: K4 kissing-loop RNA reporter
Assay: apparent KD of K4 kissing-loop reporter; higher = weaker reporter binding
Conditions: Eterna round: R107; input ligand: FMN 200 uM
Procedure: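 RNA-MaP round R107: designed RNA switches with theophylline, tryptophan, arginine or FMN aptamers are transcribed on-chip within common flanks. They are titrated with a labelled K4 kissing-loop RNA reporter in RNA-MaP buffer (100 mM Tris pH 7.5, 80 mM KCl, 4 mM MgCl2), without ligand or with the indicated ligand. Median apparent KD per design.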
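Also: bound reporter read as fluorescence of individual clusters on recovered sequencing chips by microscopy, with normalized cluster intensities fitted with a binding model.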

Sequence | apparent KD of K4 kissing-loop reporter [nM]
UCUGUUUCGAUGGAUACCAGUCGGCGAAUCACAGCUAUUAGCCUAGUGAUGUUAGGAUCGGACCCUUGGCAGCCAAUGGAUGCGG [theeternabot_sameState_KL_Theo_B_14] | 921
AAGGGCGGAACUUCCUCGCCGGAUAGAGAUACCAGCCCAGCAAAGGGCCCUUGGCAGCUCACUGACCUCAGUGAUGUUGAGGUUC [Riesrevere] | 345
GUCGGCCGCGCGCAAGCGCGGCCGGCCGAUACCAGCGCGCCGGUGCGCCCUUGGCAGCGGCACCGAGUGAUGUUCGGUCAGACGA [#2 Same State - Theophylline A Attempt #6 (HarryS)] | 407
UGCGCUAUGUCCUAAAAUGUCCUCCGGGAUACCAGAGUCUUUUUAUUCCCUUGGCAGCUUGAGUGAUGUUUGAUGCCGUUCUUGU [nnbvmullin] | 708
CCGGGCGGCCGAAGGAGCGGGCGGACCCGAGUGAUGUUCGGGUGGACCGUGAGGUCCGGUGCCCAGGUAGGUCGCGGUUCCGUCC [#2 Same State - Arginine B Attempt #6 (HarryS)] | 200
GGAUAGGACAGAGGAUAUGGUAGCUAGGCAAGACAAAAGUCUUGUCUAGCAAUGAGGAGUGAUGUUCCAGAAGGCUGUCCUAUCG [FmnBX 4 - #SwitchBubble #StaticStem] | 753
UGAUUAAGCAGUGAUGUUGCAAGUAAUGAUACCAGUUAAGAAGAGAACCCUUGGCAGCAUAAAGUGCGCUCUGAUGAGUGUGCUU [whbob_SS_Theo_A_w53] | 101
GGGAGAAGUGCGGCCGCCACUGAGAAAGAAGAAGAAUAUAGUGAUGUUAUAUAGGAAAGGAAGAACAGGACCGGGCAUAAGAGGG [SSTryptB.A] | 104
UAGGAGUGAUGUUCCAUGUCUUGAGCCGAAGGAGCGCCUUUCUAGGCAGGUAGGUCGCGGCAGAAGGUACCAGUGAUGUUGGAAA [Same State Arginine A GF8] | 249
GUAUCGCUAGGAGGAUAUUUCGUUUUUCAUAGCAAUGGCUGUGCGGAGUGAUGUUCCGAUUUACCGGAAGAAGGCCUAGUGAUAC [FMN B 27] | 107
CCUAUCUCAUACGAUACCAGUCAAUGAUCUUUGAUCAAUGCCAUCACCGAGUGAUGUUCGGACCCUUGGCAGCGUAUGAGAUGGG [whbob_Ex_Theo_B_sa104] | 276
GGACUACUAUGUCCCAUACAAACAAGAGAUACCAGCCAUCAUAGAGGCCCUUGGCAGCUCAUAUAAUCCAGUGAUGUUGGAUUUC [Beveus] | 150
GGUGACGACCAGAGGUGAUGUAUAGUAUCGCGAGGACCGGUACGGCCGCCACUCGUGAAGAGAAAGGAGUGAUGUUCCGUAAUGG [Kazoo C9] | 241
UUUUUAUUCAGUGAUGUUGAAUUUAUAUCAGAGGAUAUGCAUAAAAGCAGAAGGCUGAAAUACUAUACUUUAAUAAAUUAUAUUU [JR_SSFMNA_Sub017] | 249
GCUAUGGUAGGAAGGAGCGCUGCCUUGUUUUUACGAGUGAUGUUCGGAAGCAGGGCGUUAAAGCAGGUAGGUCGCCUACUAUAGC [Arginine B K4 22] | 220
UCCUACGAGGUAACGUGGAUAUCUCGUUGCAAGGAUAUCUGGAAACAGAGAAGGUGCUACAUUAUCGGCAGUGAUGUUGCUGACC | 687
AAAGAUGCGUCGGCCGCCACUGUUGCCAGUGAUGUUGGCAUGUAGAUGCAGUGAUGUUGCGUUUUCAGGACCGGGACGUAAGAUG [5th] | 261
GGCGUCAAACCAGAACUAGUGAUGUUGGUUCGAGGACCGGUACGGCCGCCACUCGAUCUCUUGGUCCAUCGCGGAAGGGCAGCGG [theeternabot_exclusion_KL_Trp_A_29] | 511
UUUGUAUAGGGAAGGAGCGUGAAUGAUAAAGAAUAUAGUGAUGUUAUAUAGAAGAAAGAAUCACAGGUAGGUCGCCCGGAGGAGG [SSArgB.H] | 599
AGUGCCGAGUGUGAUACCAGCUUCAUGCAGUGAUGUUGCACACGAGUGAUGUUCGUCCGAGGCCCUUGGCAGCGCAGUCGCUCGA [Same State Theophylline B Gf 30] | 751
UGUGAUGUUGUGAUGUUUAGUGUUGUUGGGCAGGAUAUUGUAGAGGCGAGAAGGGCUAGUGUGAUGUAUGAGUGAUGUUUGUAGU [kkollmullin] | 127

Sequence | apparent KD of K4 kissing-loop reporter [nM]
UGUCAUUGGUCUGAUACCAGAAGAAAUCUGGAGUGAUGUUCCAAGUCGACAAAAUGUCGCUUCCCUUGGCAGCAGACCGAUGACU [TheoBS 23 #SwitchBubble 13 #StaticStem] | 393
GUUACGCAUGGAAGGAGCGCUCUCAUAUUUAAUAACACAGUGAUGUUGUGAAUUUAUAUAAAGCAGGUAGGUCGCCAUGUGUAAC [Ex Arginine B K4 6] | 336
GGUAUCUAUACAGAUACCAGUCGUACAGCACCAUUACAGGUUAGUGAUGUUAACCUGUACGACCCUUGGCAGCUGUAUUAUAAUA [#15 K4 Theophylline B Exclusion] | 94.3
UGACUACAUAAGGAAUAAUCCUAGUGAUGUUAGGAUAUGCUGAUAAGCAGAAGGAACGGAGAUCGAAGGAUCUCAUAUGUAGUCU [whbob_Ex_FMNA__2th194] | 275
GUGCGCGGUGCGGCCGCCACUCGCAUGAGAGUGAUGUUCUCGGGACGGACGGAAGUCCGUCAUGUGAGGACCGGGCAUGGCUGCG [#2 Same State - Tryptophan B Attempt #10 (HarryS)] | 894
UACUUAUAUAUCAACUUAAAUUAUUCAGAAGGAGCGUGAUCAUUCACAGGUAGGUCGCUGAACUAGUGAUGUUAGUUUUAAUUUU [JR_Nu_ExcArginiA_Sub023] | 67.9
GAGAUAGAGGCGGCCGCCACUAGUGAUGUUAGUGAUGUUAGAUAGAGAAUAUAACAGGGAUUAGAUAGGACCGGGCCAGAUGGAG ['lljullin] | 116
AGUAUAGAGUCGGCCGCCACUGGUUUUAUGUGUGUCAAAUCUGGAUCAAAGUGAUGUUUUGAGACUAGGACCGGGACCAUUGUUA [#06 K4 Tryptophan B Exclusion] | 160
AGUACAGACACGGCCGCCACUCAGAAGAAGACAGUAGUGAUGUUACUGAUGGUGAGAAUAAUAAAGAGGACCGGGUGUUGUGCAA [#04 K4 Tryptophan B Same State] | 222
CCUAUCUCAUACGAUACCAGUGAAUUUAUGUUUAUUAGCAGUGAUGUUGCGUUCCAAGUACACCCUUGGCAGCGUAUGGGAUAGG [Ex Theophylline B K4 24] | 139
UAGUCCGAGUGAUGGUCAUCACGUGGCGGGCGAGGACCGGUACGGCCGCCACUCGACUUUGCAGUGAUGUUGCAAACCGGACAAU [Exclusion - Tryptophan A (Freestyle 21)] | 229
GUCCACACUGCAGGAUAUGGAGGUAUAGCGAGGGAGUGUGGAAGCACACCUCUGGCAGUGAUGUUGCCAGAAGGGCGGUGCGGCG [Masodionra] | 118
GAGAGCCCUGGAGGAUAUGAGUCUAGUGAUGUUAGGCGGUCCAUGCGCGUGGCGCGUUAUGCCCUUUUAGAAGGCCAGGGCUCUC [#2 Exclusion - FMN B Attempt #18 (HarryS)] | 109
UUCUACGUGCAAGGAUAUCCAUACGCUGCUAAGCGGGUAGCGAUAUAUGGAGUGAUGUUCCAUGUAGGAGAAGGUGCACUGUCCU [Rieser] | 144
AAGGUUCGUGGAAGGAGCGCCCGUGCGACUCGUUCACUAAGUGAAGUCCGAGUGAUGUUCGGGCAGGUAGGUCGCCACGGGCAAA [Atonenge] | 164
UAAUAAAUUCCAGCUGUAUCACUCUUCGAAGGAGCGGACGAAAGUCCAGGUAGGUCGCGAAGAGUGAUGUUCUUUGCGGCGCUGG [Omei KL Arginine A Exc A v6] | 82.3
CCGUGGCCGACGGCCGCCACUCUUACCAUCCAGCGGAGUGAUGUUCCGCCCGAGUGAUGUUCGGAGAGGACCGGGUCUGUUGUAA [Exclusion Tryptophan B GF30] | 117
CCAGGAUGAUGAGGAUGAUAAAUUACUGAAGGAGCGCAUAUGGUUGCAGGUAGGUCGCGGUGAAUAAGUAUAGUGAUGUUAUGCC [SSArgA.Y] | 970
UUCUAACACACCGAUACCAGAGCCCAGUGAUGUUGGGCCUAGGUCGGAUGCUCACUGACGCUCCCUUGGCAGCGGUGGGCUAACC [Arreisve] | 127
AAUACGAAGCAGUGAUGUUGCUUAUGAGAAGGAGCGCACGAAAGUGCAGGUAGGUCGCUCAGCCAAGUGGACGAAAACGUCCACA [whbob_SS_Arginine_A_sa108] | 96.4
AGCAGCAAAUCCUAGUGAUGUUAGGAUAUGUAGGAUAUCGGGAUACCGAGAAGGACAGAAGGAGGAGUGAUGUUCCUAAGCUGCA [FmnAX 24 #DoubleAptamer #DoubleK4 #SwitchBubble] | 143

Same assay, conditions: Eterna round: R107; input ligand: arginine 13.2 mM

Sequence | apparent KD of K4 kissing-loop reporter [nM]
UCUGUUUCGAUGGAUACCAGUCGGCGAAUCACAGCUAUUAGCCUAGUGAUGUUAGGAUCGGACCCUUGGCAGCCAAUGGAUGCGG [theeternabot_sameState_KL_Theo_B_14] | 750
AAGGGCGGAACUUCCUCGCCGGAUAGAGAUACCAGCCCAGCAAAGGGCCCUUGGCAGCUCACUGACCUCAGUGAUGUUGAGGUUC [Riesrevere] | 241
GUCGGCCGCGCGCAAGCGCGGCCGGCCGAUACCAGCGCGCCGGUGCGCCCUUGGCAGCGGCACCGAGUGAUGUUCGGUCAGACGA [#2 Same State - Theophylline A Attempt #6 (HarryS)] | 161
UGCGCUAUGUCCUAAAAUGUCCUCCGGGAUACCAGAGUCUUUUUAUUCCCUUGGCAGCUUGAGUGAUGUUUGAUGCCGUUCUUGU [nnbvmullin] | 294
CCGGGCGGCCGAAGGAGCGGGCGGACCCGAGUGAUGUUCGGGUGGACCGUGAGGUCCGGUGCCCAGGUAGGUCGCGGUUCCGUCC [#2 Same State - Arginine B Attempt #6 (HarryS)] | 101
GGAUAGGACAGAGGAUAUGGUAGCUAGGCAAGACAAAAGUCUUGUCUAGCAAUGAGGAGUGAUGUUCCAGAAGGCUGUCCUAUCG [FmnBX 4 - #SwitchBubble #StaticStem] | 350
UGAUUAAGCAGUGAUGUUGCAAGUAAUGAUACCAGUUAAGAAGAGAACCCUUGGCAGCAUAAAGUGCGCUCUGAUGAGUGUGCUU [whbob_SS_Theo_A_w53] | 153
GGGAGAAGUGCGGCCGCCACUGAGAAAGAAGAAGAAUAUAGUGAUGUUAUAUAGGAAAGGAAGAACAGGACCGGGCAUAAGAGGG [SSTryptB.A] | 148
UAGGAGUGAUGUUCCAUGUCUUGAGCCGAAGGAGCGCCUUUCUAGGCAGGUAGGUCGCGGCAGAAGGUACCAGUGAUGUUGGAAA [Same State Arginine A GF8] | 385
GUAUCGCUAGGAGGAUAUUUCGUUUUUCAUAGCAAUGGCUGUGCGGAGUGAUGUUCCGAUUUACCGGAAGAAGGCCUAGUGAUAC [FMN B 27] | 165
